B1: CEA.554.V42K10 (peptide)
peptide: RVLTLFNVTK
B2: CEA.376.V2K10 (peptide)
peptide: RVLTLLSVTK
B3: CEA.419.V2K10 (peptide)
peptide: TVSPSYTYYK
B4: CEA.419.V2 (peptide)
peptide: TVSPSYTYYR
B5: CEA.646.F1 (peptide)
peptide: FPNNNGTI
B6: CEA.428.F1 (peptide)
peptide: FPGVNLSL
B7: CEA.13.F1I10 (peptide)
peptide: FPWQRLLLTI
B8: CEA.680.F1, 10 AA (peptide)
peptide: FPGLSAGATI
B9: CEA.58.F1, 8 AA (peptide)
peptide: FPQHLFGI
B10: CEA.3.F1I9 (peptide)
peptide: FPSAPPHRI
B11: CEA.680.F1I8 (peptide)
peptide: FPGLSAGI
B12: CEA.13.F1, 8 AA (peptide)
peptide: FPWQRLLL
B13: CEA.632.F1, 8 AA (peptide)
peptide: FPQQHTQI
B14: CEA.363.F1I9 (peptide)
peptide: FPVSPRLQI
B15: CEA.363.F1 (peptide)
peptide: FPVSPRLQL
B16: CEA.7.F1I9 (peptide)
peptide: FPHRWCIPI
B17: CEA.92.F1 (peptide)
peptide: FPAYSGREI
B18: CEA.236.F1I10 (peptide)
peptide: FPDAPTISPI
B19: CEA.236.F1 (peptide)
peptide: FPDAPTISPL
B20: CEA.6.F1I10 (peptide)
peptide: FPPHRWCIPI
B21: CEA.632.F1, 9 AA (peptide)
peptide: FPQQHTQVL
B22: CEA.58.F1I10 (peptide)
peptide: FPQHLFGYSI
B23: CEA.632.F1I10 (peptide)
peptide: FPQQHTQVLI
B24: CEA.632.F1I9 (peptide)
peptide: FPQQHTQVI
B25: CEA.632.F1, 10 AA (peptide)
peptide: FPQQHTQVLF
B26: CEA.177 (peptide)
peptide: LWWVNNQSLPVSPRL
B27: CEA.368 (peptide)
peptide: RLQLSNDNRTLTLLS
B28: CEA.691.L2 (peptide)
peptide: ILIGVLVGV
B29: CEA.78.L2V9 (peptide)
peptide: QLIGYVIGV
B30: CEA.691L2 (peptide)
peptide: ILIGVLVGV
B31: CEA.690 (peptide)
peptide: GIMIGVLVGV
B32: CEA.687L2 (peptide)
peptide: ALVGIMIGV
B33: CEA.569L2 (peptide)
peptide: YLCGIQNSV
B34: CEA.691 (10-mer IMIGVLVGVA) (peptide)
peptide: IMIGVLVGVA
B35: CEA.78L2V9 (peptide)
peptide: QLIGYVIGV

Target: HLA-A*3101 (human)
Test: competition with 125I probe peptide for purified HLA

Row | Binder | IC50 [nM]
1 | B1 | 234
2 | B2 | 164
3 | B3 | 3670

Target: HLA-A*3301 (human)
Test: as above

Row | Binder | IC50 [nM]
4 | B4 | 264

Target: HLA-A*1101 (human)
Test: as above

Row | Binder | IC50 [nM]
5 | B1 | 32
6 | B4 | 3000
7 | B3 | 43

Target: HLA-A*6801 (human)
Test: as above

Row | Binder | IC50 [nM]
8 | B1 | 2350
9 | B2 | 5710
10 | B3 | 6.7

Target: HLA-A*0301 (human)
Test: as above

Row | Binder | IC50 [nM]
11 | B4 | 2340

Target: HLA-B*5301 (human)
Test: inhibition of 125I probe peptide, purified HLA

Row | Binder | IC50 [nM]
12 | B5 | 9300
13 | B6 | 95
14 | B7 | 78
15 | B8 | 1480
16 | B9 | 1070
17 | B10 | 258
18 | B11 | 332
19 | B12 | 443
20 | B13 | 7750
21 | B14 | 216
22 | B15 | 310
23 | B16 | 135
24 | B17 | 664
25 | B18 | 1020
26 | B19 | 1940
27 | B20 | 8460
28 | B21 | 93

Target: HLA-B*5101 (human)
Test: inhibition of 125I probe peptide, purified HLA

Row | Binder | IC50 [nM]
29 | B5 | 19
30 | B9 | 212
31 | B10 | 15
32 | B11 | 9
33 | B12 | 229
34 | B15 | 82
35 | B17 | 183
36 | B19 | 290
37 | B20 | 423
38 | B21 | 183
39 | B22 | 204

Target: HLA-B*0702 (human)
Test: inhibition of 125I probe peptide, purified HLA

Row | Binder | IC50 [nM]
40 | B5 | 275
41 | B6 | 19
42 | B7 | 290
43 | B8 | 212
44 | B9 | 393
45 | B23 | 134
46 | B13 | 220
47 | B15 | 0.7
48 | B16 | 2.5
49 | B17 | 2.1
50 | B18 | 183
51 | B24 | 3.4
52 | B21 | 0.9
53 | B22 | 229

Target: HLA-B*5401 (human)
Test: inhibition of 125I probe peptide, purified HLA

Row | Binder | IC50 [nM]
54 | B5 | 313
55 | B6 | 115
56 | B7 | 4.2
57 | B8 | 105
58 | B9 | 0.4
59 | B10 | 14
60 | B25 | 556
61 | B23 | 278
62 | B12 | 71
63 | B16 | 1.9
64 | B18 | 278
65 | B19 | 714
66 | B24 | 1.7

Target: HLA-B*3501 (human)
Test: inhibition of 125I probe peptide, purified HLA

Row | Binder | IC50 [nM]
67 | B6 | 277
68 | B7 | 2120
69 | B10 | 3600
70 | B25 | 51
71 | B23 | 809
72 | B11 | 758
73 | B12 | 1760
74 | B14 | 5540
75 | B15 | 600
76 | B16 | 257
77 | B17 | 7200
78 | B18 | 1330
79 | B19 | 327
80 | B24 | 139
81 | B22 | 900

Target: HLA-DRB1*0701 (human)
Test: inhibition of 125I probe peptide, purified HLA

Row | Binder | IC50 [nM]
82 | B26 | 3050

Target: HLA-DRB1*0301 (human)
Test: competition with 125I probe peptide, purified HLA

Row | Binder | IC50 [nM]
83 | B27 | 938

Target: HLA-DRB1*1302 (human)
Test: competition with 125I probe peptide, purified HLA

Row | Binder | IC50 [nM]
84 | B27 | 729

Target: HLA-A*0201 (human)
Test: inhibition of 125I probe peptide, purified HLA

Row | Binder | IC50 [nM]
85 | B28 | 22

Target: HLA-A*0203 (human)
Test: inhibition of 125I probe peptide, purified HLA

Row | Binder | IC50 [nM]
86 | B28 | 3.2

Target: HLA-A*0202 (human)
Test: inhibition of 125I probe peptide, purified HLA

Row | Binder | IC50 [nM]
87 | B29 | 5.9

Target: HLA-A*0201 (human)
Test: competition with 125I probe peptide for purified HLA

Row | Binder | IC50 [nM]
88 | B30 | 22
89 | B31 | 64

Target: HLA-A*6802 (human)
Test: as above

Row | Binder | IC50 [nM]
90 | B32 | 102
91 | B33 | 3480
92 | B34 | 1510
93 | B31 | 500

Target: HLA-A*0203 (human)
Test: as above

Row | Binder | IC50 [nM]
94 | B32 | 31
95 | B30 | 3.2
96 | B31 | 31

Target: HLA-A*0206 (human)
Test: as above

Row | Binder | IC50 [nM]
97 | B33 | 31
98 | B31 | 142

Target: HLA-A*0202 (human)
Test: as above

Row | Binder | IC50 [nM]
99 | B35 | 5.9
100 | B31 | 205

Target: HLA-DRB1*0301 (human)
Test: competition with 125I probe peptide, purified HLA
Remark: another data set of the same source

Row | Binder | IC50 [nM]
101 | B27 | 938

From patent US20040146519A1 (published 2004)
